Measured values taken from article PMC9482650, “Quantitative fragmentomics allow affinity mapping of interactomes” (Nature Communications, 2022).

T1: PTPN4, P29074
T1 sequence (P29074 512-599, limits assumed, looked up): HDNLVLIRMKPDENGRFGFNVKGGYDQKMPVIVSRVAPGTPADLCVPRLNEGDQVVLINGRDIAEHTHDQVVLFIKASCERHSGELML

T2: NHERF1_2, O14745
T2 sequence (O14745 149-244, limits assumed, looked up): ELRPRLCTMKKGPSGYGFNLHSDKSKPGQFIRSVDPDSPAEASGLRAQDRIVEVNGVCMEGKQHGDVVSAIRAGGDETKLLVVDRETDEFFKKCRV

T3: PARD6G, Q9BYG4
T3 sequence (Q9BYG4 153-261, limits assumed, looked up): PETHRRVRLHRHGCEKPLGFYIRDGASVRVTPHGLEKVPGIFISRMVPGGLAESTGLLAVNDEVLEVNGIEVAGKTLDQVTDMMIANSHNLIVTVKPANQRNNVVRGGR

T4: SYNPO2L, Q9H987
T4 sequence (Q9H987 1-98, limits assumed, looked up): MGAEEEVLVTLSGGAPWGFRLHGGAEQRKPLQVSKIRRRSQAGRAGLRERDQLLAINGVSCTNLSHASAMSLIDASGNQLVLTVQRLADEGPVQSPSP

T5: MPP5, Q8N3R9
T5 sequence (Q8N3R9 251-346, limits assumed, looked up): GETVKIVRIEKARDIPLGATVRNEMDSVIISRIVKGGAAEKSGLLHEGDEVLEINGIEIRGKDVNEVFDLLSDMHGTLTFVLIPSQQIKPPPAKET

T6: PDLIM3, Q53GG5
T6 sequence (Q53GG5 1-94, limits assumed, looked up): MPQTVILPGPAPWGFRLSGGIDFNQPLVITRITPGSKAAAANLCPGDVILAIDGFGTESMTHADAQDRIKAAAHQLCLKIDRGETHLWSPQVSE

T7: PTPN13_4, Q12923
T7 sequence (Q12923 1783-1878, limits assumed, looked up): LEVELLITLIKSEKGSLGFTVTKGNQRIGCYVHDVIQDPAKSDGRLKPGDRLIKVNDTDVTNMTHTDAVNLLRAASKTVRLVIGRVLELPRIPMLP

T8: SHROOM3, Q8TF72
T8 sequence (Q8TF72 20-120, limits assumed, looked up): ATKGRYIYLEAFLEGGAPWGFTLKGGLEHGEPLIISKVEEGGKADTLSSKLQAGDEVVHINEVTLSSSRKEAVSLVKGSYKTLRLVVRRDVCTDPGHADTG

T9: PDZD2_6, O15018
T9 sequence (O15018 2745-2839, limits assumed, looked up): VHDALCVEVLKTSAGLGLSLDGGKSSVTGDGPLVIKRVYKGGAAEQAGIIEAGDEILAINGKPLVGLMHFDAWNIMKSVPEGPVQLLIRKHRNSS

T10: PDZD7_2, Q9H5P4
T10 sequence (Q9H5P4 205-303, limits assumed, looked up): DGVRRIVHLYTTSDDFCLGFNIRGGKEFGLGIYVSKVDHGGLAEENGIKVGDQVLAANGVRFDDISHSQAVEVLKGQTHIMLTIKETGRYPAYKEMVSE

T11: LNX2_4, Q8N448
T11 sequence (Q8N448 595-690, limits assumed, looked up): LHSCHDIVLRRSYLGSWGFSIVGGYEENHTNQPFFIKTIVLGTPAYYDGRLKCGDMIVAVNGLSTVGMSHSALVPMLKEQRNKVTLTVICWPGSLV

T12: SHANK2, Q9UPX8
T12 sequence (Q9UPX8 621-730, limits assumed, looked up): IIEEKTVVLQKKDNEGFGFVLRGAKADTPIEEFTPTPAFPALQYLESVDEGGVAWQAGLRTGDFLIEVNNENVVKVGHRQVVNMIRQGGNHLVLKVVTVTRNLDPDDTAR

B1: NET1, Q7Z628 (peptide)
chain: SGGKRKETLV
B2: SLC15A5, A6NIM6 (peptide)
chain: SSIDLWETAL
B3: HPV33-E6, P06427 (peptide)
chain: SRSRRRETAL
B4: HPV82-E6, Q9IR59 (peptide)
chain: PPRQRSETQV

Legend:
Assay in all cases: holdup assay
Set-up in all cases: key: below the threshold = too weak to quantify, mostly under pKd 3.1 to 4
Conditions in all cases: plain residues with an end cap or a label only (N-terminal biotin on a linker: ttds)
NHERF2_1, Q15599 = target: NHERF2_1, Q15599
MAGI1_6, Q96QZ7 = target: MAGI1_6, Q96QZ7
PTPN4, P29074 = target: T1, PTPN4, P29074
NHERF1_2, O14745 = target: T2, NHERF1_2, O14745
PARD6G, Q9BYG4 = target: T3, PARD6G, Q9BYG4
SYNPO2L, Q9H987 = target: T4, SYNPO2L, Q9H987
MPP5, Q8N3R9 = target: T5, MPP5, Q8N3R9
LIMK2, P53671 = target: LIMK2, P53671
SDCBP_1, O00560 = target: SDCBP_1, O00560
DLG2_1, Q15700 = target: DLG2_1, Q15700
LDB3, O75112 = target: LDB3, O75112
MAST3, O60307 = target: MAST3, O60307
MAGI3_6, Q5TCQ9 = target: MAGI3_6, Q5TCQ9
PREX1_1, Q8TCU6 = target: PREX1_1, Q8TCU6
PDLIM3, Q53GG5 = target: T6, PDLIM3, Q53GG5
NOS1, P29475 = target: NOS1, P29475
PTPN13_4, Q12923 = target: T7, PTPN13_4, Q12923
SHROOM3, Q8TF72 = target: T8, SHROOM3, Q8TF72
Inadl_7, Q8NI35 = target: Inadl_7, Q8NI35
PDZD2_6, O15018 = target: T9, PDZD2_6, O15018
PDZD7_2, Q9H5P4 = target: T10, PDZD7_2, Q9H5P4
PARD3B_2, Q8TEW8 = target: PARD3B_2, Q8TEW8
LNX2_4, Q8N448 = target: T11, LNX2_4, Q8N448
SHANK2, Q9UPX8 = target: T12, SHANK2, Q9UPX8
LMO7, Q8WWI1 = target: LMO7, Q8WWI1
Chain of LMO7, Q8WWI1 (Q8WWI1 1037-1138): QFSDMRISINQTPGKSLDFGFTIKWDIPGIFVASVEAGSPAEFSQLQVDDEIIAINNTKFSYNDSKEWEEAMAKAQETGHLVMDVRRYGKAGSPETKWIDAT

Chain of LDB3, O75112 (O75112 1-94): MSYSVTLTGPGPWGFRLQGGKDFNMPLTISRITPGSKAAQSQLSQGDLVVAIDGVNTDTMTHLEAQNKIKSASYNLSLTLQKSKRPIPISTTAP
Chain of PARD3B_2, Q8TEW8 (Q8TEW8 376-471): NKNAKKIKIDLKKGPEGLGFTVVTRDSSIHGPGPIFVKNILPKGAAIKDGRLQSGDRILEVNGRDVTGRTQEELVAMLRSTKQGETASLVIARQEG
Chain of PREX1_1, Q8TCU6 (Q8TCU6 608-718): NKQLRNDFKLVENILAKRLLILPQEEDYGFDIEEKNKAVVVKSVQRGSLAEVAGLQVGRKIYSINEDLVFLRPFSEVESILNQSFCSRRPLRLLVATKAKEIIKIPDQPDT
Chain of SDCBP_1, O00560 (O00560 111-198): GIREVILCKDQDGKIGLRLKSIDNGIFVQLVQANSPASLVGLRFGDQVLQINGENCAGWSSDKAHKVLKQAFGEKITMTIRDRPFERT
Chain of MAGI3_6, Q5TCQ9 (Q5TCQ9 1014-1103): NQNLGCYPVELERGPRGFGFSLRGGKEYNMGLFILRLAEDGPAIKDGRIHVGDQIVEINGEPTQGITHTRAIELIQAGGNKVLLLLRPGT
Chain of NOS1, P29475 (P29475 9-101): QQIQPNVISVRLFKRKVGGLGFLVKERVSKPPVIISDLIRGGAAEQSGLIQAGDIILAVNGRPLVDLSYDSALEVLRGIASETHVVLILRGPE
Chain of MAGI1_6, Q96QZ7 (Q96QZ7 1146-1238): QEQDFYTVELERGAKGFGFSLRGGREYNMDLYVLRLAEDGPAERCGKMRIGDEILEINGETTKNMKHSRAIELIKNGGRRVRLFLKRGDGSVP
Chain of NHERF2_1, Q15599 (Q15599 9-91): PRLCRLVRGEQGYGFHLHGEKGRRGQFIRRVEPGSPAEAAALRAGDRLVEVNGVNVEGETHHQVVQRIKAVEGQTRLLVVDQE
Chain of LIMK2, P53671 (P53671 143-248): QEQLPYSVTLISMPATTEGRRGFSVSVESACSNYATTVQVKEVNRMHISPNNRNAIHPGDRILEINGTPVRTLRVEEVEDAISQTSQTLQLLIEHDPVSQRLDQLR
Chain of MAST3, O60307 (O60307 945-1048): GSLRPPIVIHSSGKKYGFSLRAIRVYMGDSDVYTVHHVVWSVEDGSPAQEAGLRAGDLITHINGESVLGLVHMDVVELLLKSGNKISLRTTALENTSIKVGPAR
Chain of Inadl_7, Q8NI35 (Q8NI35 1219-1332): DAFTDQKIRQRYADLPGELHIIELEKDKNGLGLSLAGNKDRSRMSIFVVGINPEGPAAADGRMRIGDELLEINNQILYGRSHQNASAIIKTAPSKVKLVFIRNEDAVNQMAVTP

Row | Binder | pKd (NHERF2_1, Q15599) | pKd (MAGI1_6, Q96QZ7) | pKd (PTPN4, P29074) | pKd (NHERF1_2, O14745) | pKd (PARD6G, Q9BYG4) | pKd (SYNPO2L, Q9H987) | pKd (MPP5, Q8N3R9) | pKd (LIMK2, P53671) | pKd (SDCBP_1, O00560) | pKd (DLG2_1, Q15700) | pKd (LDB3, O75112) | pKd (MAST3, O60307) | pKd (MAGI3_6, Q5TCQ9) | pKd (PREX1_1, Q8TCU6) | pKd (PDLIM3, Q53GG5) | pKd (NOS1, P29475) | pKd (PTPN13_4, Q12923) | pKd (SHROOM3, Q8TF72) | pKd (Inadl_7, Q8NI35) | pKd (PDZD2_6, O15018) | also measured
1 | B1 | below the threshold | below the threshold | 3.51 | below the threshold | below the threshold | below the threshold | below the threshold | below the threshold | below the threshold | 4.87 | below the threshold | below the threshold | below the threshold | below the threshold | below the threshold | 4.09 | below the threshold | below the threshold | below the threshold | below the threshold | pKd (PDZD7_2, Q9H5P4): below the threshold; pKd (PARD3B_2, Q8TEW8): below the threshold
2 | B2 | 4.68 | 5.18 | 4.84 | below the threshold | below the threshold | below the threshold | below the threshold | below the threshold | below the threshold | below the threshold | 3.92 | 4.91 | 4.89 | below the threshold | below the threshold | 4.36 | below the threshold | 4.81 | below the threshold | below the threshold | pKd (LNX2_4, Q8N448): 5.03; pKd (SHANK2, Q9UPX8): 5.87; pKd (LMO7, Q8WWI1): below the threshold; pKd (PDZD7_2, Q9H5P4): below the threshold; pKd (PARD3B_2, Q8TEW8): below the threshold
3 | B3 | below the threshold | below the threshold | 5.02 | below the threshold | below the threshold | below the threshold | below the threshold | below the threshold | below the threshold | 5.13 | below the threshold | below the threshold | below the threshold | below the threshold | below the threshold | 4.03 | below the threshold | below the threshold | below the threshold | below the threshold | pKd (LNX2_4, Q8N448): below the threshold; pKd (SHANK2, Q9UPX8): below the threshold; pKd (LMO7, Q8WWI1): below the threshold; pKd (PDZD7_2, Q9H5P4): 4.42; pKd (PARD3B_2, Q8TEW8): below the threshold
4 | B4 | below the threshold | 4.21 | below the threshold | below the threshold | below the threshold | below the threshold | below the threshold | below the threshold | below the threshold | 4.32 | below the threshold | below the threshold | below the threshold | below the threshold | below the threshold | 3.88 | below the threshold | below the threshold | below the threshold | below the threshold | pKd (LNX2_4, Q8N448): below the threshold; pKd (SHANK2, Q9UPX8): below the threshold; pKd (LMO7, Q8WWI1): below the threshold; pKd (PDZD7_2, Q9H5P4): below the threshold; pKd (PARD3B_2, Q8TEW8): below the threshold
